Patent US20240376151A1, “STAPLED PEPTIDES AND METHODS THEREOF” (FOG PHARMACEUTICALS, INC., priority 2022, published 2024)

Target: T1, beta-catenin (Homo sapiens, UniProt P35222)
T1 construct: made in house; host or cells: E. coli BL21 (DE3) pLysS
T1 sequence (P35222 134-665): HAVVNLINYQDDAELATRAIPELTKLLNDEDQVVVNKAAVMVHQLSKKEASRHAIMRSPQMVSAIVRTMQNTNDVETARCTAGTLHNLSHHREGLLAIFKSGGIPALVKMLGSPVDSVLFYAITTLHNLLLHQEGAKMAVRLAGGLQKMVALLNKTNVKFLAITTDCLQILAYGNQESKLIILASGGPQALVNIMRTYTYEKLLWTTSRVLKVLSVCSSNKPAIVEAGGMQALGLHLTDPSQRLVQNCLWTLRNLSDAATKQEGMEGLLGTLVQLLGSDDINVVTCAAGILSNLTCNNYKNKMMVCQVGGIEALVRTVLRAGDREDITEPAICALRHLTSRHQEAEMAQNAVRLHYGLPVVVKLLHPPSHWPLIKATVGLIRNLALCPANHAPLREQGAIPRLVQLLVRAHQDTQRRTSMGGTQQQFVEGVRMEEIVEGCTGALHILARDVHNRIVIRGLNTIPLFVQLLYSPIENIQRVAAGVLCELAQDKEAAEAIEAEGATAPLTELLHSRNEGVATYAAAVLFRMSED
Experiment: Phage Library Screening with NGS, beta-catenin
Assay type: binding
Conditions: for Target Concentration 10 (phage screen NGS readout): beta-catenin target concentration 10; for Target Concentration 10 (phage screen NGS readout) / Target Concentration 30 (phage screen NGS readout) / Target Concentration 100 (phage screen NGS readout) / Target Concentration 300 (phage screen NGS readout): no competitor; for Target Concentration 30 (phage screen NGS readout): beta-catenin target concentration 30; for Target Concentration 100 (phage screen NGS readout): beta-catenin target concentration 100; for Target Concentration 300 (phage screen NGS readout): beta-catenin target concentration 300; for Target Concentration 1000 (phage screen NGS readout): beta-catenin target concentration 1000

| Molecule | Target Concentration BLANK (phage screen NGS readout) (first column) | Target Concentration BLANK (phage screen NGS readout) (fourth column) | Target Concentration BLANK (phage screen NGS readout) (second column) | Target Concentration BLANK (phage screen NGS readout) (third column) | Target Concentration 10 (phage screen NGS readout) | Target Concentration 30 (phage screen NGS readout) | Target Concentration 100 (phage screen NGS readout) | Target Concentration 300 (phage screen NGS readout) | Target Concentration 1000 (phage screen NGS readout) (first 1000 column) | Target Concentration 1000 (phage screen NGS readout) (second 1000 column) |
| --- | --- | --- | --- | --- | --- | --- | --- | --- | --- | --- |
| DPAHWSCEWAAEHCRLI | 0 | 0 | 0 | 0 | 0 | 1 | 0 | 31 | 19 | 64 |
| DPAFLDCHIAAWTCNEF | 0 | 0 | 0 | 0 | 0 | 1 | 10 | 15 | 28 | 15 |
| CC[C@H](C)[C@H](NC(=O)[C@H](C)NC(=O)[C@H](C)NC(=O)[C@H](Cc1c[nH]c2ccccc12)NC(=O)[C@H](CCC(=O)O)NC(=O)[C@H](CS)NC(=O)[C@H](CC(C)C)NC(=O)[C@H](CCC(=O)O)NC(=O)[C@H](CO)NC(=O)[C@H](C)NC(=O)[C@@H]1CCCN1C(=O)[C@H](CC(=O)O)NC(C)=O)C(=O)N[C@@H](Cc1c[nH]cn1)C(=O)N[C@@H](CS)C(=O)N[C@@H](CC(=O)O)C(=O)N[C@@H](CC(C)C)C(=O)N[C@H](C(N)=O)C(C)C | 1 | 1 | 2 | 3 | 19 | 41 | 163 | 495 | 605 | 424 |
| DPADEDCILAAHVCRHF | 0 | 0 | 0 | 0 | 0 | 6 | 11 | 29 | 25 | 21 |
| DPAVLECHIAAWECRMD | 0 | 0 | 0 | 0 | 0 | 0 | 24 | 83 | 91 | 45 |
| DPAILNCHMAAWDCNFY | 0 | 0 | 0 | 1 | 0 | 7 | 14 | 57 | 37 | 59 |
| DPAILECHVAALDCQMW | 0 | 0 | 2 | 0 | 0 | 2 | 40 | 55 | 98 | 81 |
| DPADYDCILAAHICTNI | 0 | 0 | 0 | 0 | 2 | 18 | 70 | 147 | 118 | 122 |
| DPAEAECILAAHICNIS | 0 | 0 | 0 | 0 | 10 | 0 | 37 | 39 | 51 | 52 |
| DPAVQDCEWAAIYCELI | 0 | 1 | 1 | 0 | 0 | 9 | 10 | 158 | 104 | 157 |

More lines, now with the values ahead:

| Target Concentration BLANK (phage screen NGS readout) (first column) | Target Concentration BLANK (phage screen NGS readout) (fourth column) | Target Concentration BLANK (phage screen NGS readout) (second column) | Target Concentration BLANK (phage screen NGS readout) (third column) | Target Concentration 10 (phage screen NGS readout) | Target Concentration 30 (phage screen NGS readout) | Target Concentration 100 (phage screen NGS readout) | Target Concentration 300 (phage screen NGS readout) | Target Concentration 1000 (phage screen NGS readout) (first 1000 column) | Target Concentration 1000 (phage screen NGS readout) (second 1000 column) | Molecule |
| --- | --- | --- | --- | --- | --- | --- | --- | --- | --- | --- |
| 0 | 0 | 1 | 0 | 6 | 35 | 226 | 419 | 326 | 432 | DPAQWACEHAALLCSMD |
| 0 | 0 | 0 | 0 | 2 | 0 | 10 | 7 | 18 | 16 | DPAFESCFLAAHICYWE |
| 0 | 0 | 0 | 0 | 0 | 0 | 16 | 42 | 39 | 29 | DPAILDCSIAAIDCAYS |
| 1 | 1 | 0 | 0 | 2 | 4 | 29 | 85 | 111 | 150 | DPAIMACYEAAYLCDYI |
| 0 | 0 | 0 | 0 | 19 | 38 | 139 | 235 | 322 | 228 | DPAEAICILAAHECWWD |
| 0 | 0 | 0 | 0 | 2 | 10 | 81 | 147 | 203 | 280 | DPATWHCDWAAEHCELL |
| 0 | 0 | 2 | 0 | 0 | 2 | 11 | 86 | 95 | 62 | DPAVHRCFWAAEHCDLI |
| 0 | 0 | 0 | 0 | 0 | 0 | 0 | 26 | 28 | 31 | DPAENTCSWAAEHCALV |
